Assay results from PMC9603599, “NAC1 Maintains Root Meristem Activity by Repressing the Transcription of E2Fa in Arabidopsis”.

Biological target: T1, GST-NAC1(1-199) (Arabidopsis thaliana, UniProt Q84TE6 1-199)
T1 sequence: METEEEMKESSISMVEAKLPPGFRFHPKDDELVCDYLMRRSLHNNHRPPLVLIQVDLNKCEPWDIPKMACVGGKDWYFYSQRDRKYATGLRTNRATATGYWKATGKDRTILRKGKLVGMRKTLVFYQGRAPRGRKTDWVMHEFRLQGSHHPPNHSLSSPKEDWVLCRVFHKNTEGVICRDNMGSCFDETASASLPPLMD
Assay: EMSA; LightShift Chemiluminescent EMSA kit (Thermo 20148), manufacturer's instructions; buffer, salt, pH and temperature not stated
Conditions: protein: recombinant, tags: GST (N-terminal, pGEX-4T-1), chain copies: 2, label: biotin

B1: E2Fa promoter probe P1 (E2Fa-BIO-F1/R1) (dsDNA)
DNA 1: CGTGAAATGCCAGTGGTCTATGATCGGATTCTCTGTTTCCCGTTCTCCTTCTTTTTTTGGGCCTTAAATCCGTTT
DNA 2: AAACGGATTTAAGGCCCAAAAAAAGAAGGAGAACGGAAACAGAGAATCCGATCATAGACCACTGGCATTTCACG
Printed strands differ by one nt: F1 has CCCGTT where R1 complement gives CCGTT (1-nt bulge or typo), P1 = F1/R1 by number
  binding result: binds

B2: E2Fa promoter probe P2 (E2Fa-BIO-F2/R2) (dsDNA)
DNA 1: CGTGTAGAGTTGCGATTTGCAGAGAATTGTGATTCTACAATTGGAGGCAAGATGATGAATGTGTGAACTGATTAGCGTAA
DNA 2: TTACGCTAATCAGTTCACACATTCATCATCTTGCCTCCAATTGTAGAATCACAATTCTCTGCAAATCGCAACTCTACACG
blunt, P2 = F2/R2 by number
  binding result: binds
